According to the supplement of paper PMC12764529:
± gives the half width of the 95% confidence interval.

How the values were obtained:
[1] = folding stability dG unfold from trypsin proteolysis; higher = more stable
Outline: (§1)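 Digests were run with trypsin and chymotrypsin at 11 concentrations in threefold dilutions, plus a no-protease condition, on designed mini-proteins in a PA-tagged cDNA display construct. The mini-proteins were under 80 residues, had no cysteine, and were kept only when AlphaFold2 dimer inter-PAE was above 15. After sequencing, Bayesian fitting of the counts gave K50, from which unfolding free energy was derived against a sequence-predicted unfolded-state K50 and a shared folded-state K50, per protease or combined.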

[2] = folding stability dG unfold from chymotrypsin proteolysis; higher = more stable
Outline: as §1

[3] = folding stability dG unfold (combined trypsin and chymotrypsin); higher = more stable
Outline: as §1

Sequence	folding stability dG unfold [1]	folding stability dG unfold [2]	folding stability dG unfold [3]
SAGGSAGGSAGGEPDKVSIHINITEEFIEQIKNGKPIPPWARPAIKYAQKKGKKVEIVWSAGGSAGGSAGGS [r10_890_TrROS]	-1.04 ± 0.61 kcal/mol	-0.532 ± 0.53 kcal/mol	-0.498 ± 0.26 kcal/mol
SAGGSAGGSAGGEPIPTKTIEVDEATGTVTVTVTFPPPNETVTVTRPAPPDVSLEEVLASAGGSAGGSAGGS [r10_676_JUSTAS]	1.07 ± 0.17 kcal/mol	1.58 ± 0.15 kcal/mol	1.59 ± 0.15 kcal/mol
SAGGSAGGSAGGERVVRFPYTGTLEDVLEAARRLRRLGGVEVGYDPENGVLLARFKGGGLSAGGSAGGSAGG [r7_219_TrMRF]	0.54 ± 0.056 kcal/mol	1.6 ± 0.046 kcal/mol	1.25 ± 0.049 kcal/mol
SAGGSAGGSAGGETITIKNKKTNETVTIEKDKDGNYTITYPDGSKKTYKKGEKISKSALSAGGSAGGSAGGS [r10_98_TrROS_Hall]	0.162 ± 0.13 kcal/mol	1.18 ± 0.14 kcal/mol	0.9 ± 0.18 kcal/mol
SAGGSAGGSAGGEWRTLYIPIPGMPPEFIETFALELLDDGAKVEDIEWNPNNGYLMITVRSAGGSAGGSAGG [r7_906_TrROS]	1.37 ± 0.029 kcal/mol	2.05 ± 0.056 kcal/mol	1.82 ± 0.075 kcal/mol
SAGGSAGGSAGGFIPEDGHPDETVQLTTSLTLTTSYTLPNGETVTETHTVPVLFTYKVPSAGGSAGGSAGGS [r10_1135_TrMRF]	0.433 ± 0.02 kcal/mol	1.02 ± 0.071 kcal/mol	0.797 ± 0.054 kcal/mol
SAGGSAGGSAGGFVLTFTLPDSVVRITLPEDANPEEIKQRLLEEHGVPIELRLIPPSNPLSAGGSAGGSAGG [r11_805_JUSTAS]	0.726 ± 0.12 kcal/mol	0.664 ± 0.38 kcal/mol	0.782 ± 0.2 kcal/mol
SAGGSAGGSAGGGDFEKVKVRFRYVNPDGGPERDIEIEVEARKEDIPRLLKELKDAGLIESAGGSAGGSAGG [r7_618_TrMRF]	0.982 ± 0.054 kcal/mol	1.25 ± 0.15 kcal/mol	1.23 ± 0.099 kcal/mol
SAGGSAGGSAGGGISEAAASGTPLLVTYTDESGNVTEVVVRPDSPVPLPGVVSAEVRLESAGGSAGGSAGGS [r10_700_JUSTAS]	1.05 ± 0.03 kcal/mol	0.167 ± 0.023 kcal/mol	0.666 ± 0.037 kcal/mol
SAGGSAGGSAGGGIVIEGDIESIEVEKNPDTDYYLVTVRFKSTDKPYTFVFKKDEKLDVSAGGSAGGSAGGS [r10_819_TrMRF]	1.49 ± 0.036 kcal/mol	2.16 ± 0.21 kcal/mol	1.77 ± 0.23 kcal/mol
SAGGSAGGSAGGGIYEVDENGNPLPPRPYLVLKIGYEVGYLPDGGAGLSLNIEIYPVYDASAGGSAGGSAGG [r7_572_TrMRF]	3.18 ± 0.2 kcal/mol	4.25 ± 0.13 kcal/mol	3.79 ± 0.23 kcal/mol
SAGGSAGGSAGGGKEISLDELIDIAIELGYPGTIEDLLADPNIKIYPNPYDDKPVILIPDSAGGSAGGSAGG [r7_180_TrMRF]	1.7 ± 0.065 kcal/mol	0.576 ± 0.053 kcal/mol	1.25 ± 0.086 kcal/mol
SAGGSAGGSAGGGKKILGVQPELFYDPENGTLYVKTVAVGEDENGAPGDADISVEPFPLLSAGGSAGGSAGG [r7_892_TrMRF]	0.242 ± 0.053 kcal/mol	-0.596 ± 0.54 kcal/mol	-0.277 ± 0.26 kcal/mol
SAGGSAGGSAGGGKKKVTVEFVIKVPKNSKPVFFTIKGGIKVEFYPIPDTNYALVKVTFGSAGGSAGGSAGG [r7_796_TrMRF]	2.46 ± 0.19 kcal/mol	3.92 ± 0.12 kcal/mol	3.52 ± 0.15 kcal/mol
SAGGSAGGSAGGGKLAIRVEIEPVRTETRLRADGSLETRTEFRVRIEIRPVGNPDDPRNNSAGGSAGGSAGG [r7_523_TrMRF]	2.89 ± 0.059 kcal/mol	4.36 ± 0.056 kcal/mol	3.89 ± 0.073 kcal/mol
SAGGSAGGSAGGGKPVKVIVVEVGGKKVLVTFDEDTGKLTVYNLDTGKTETVTVSPEDLSAGGSAGGSAGGS [r10_669_TrROS_Hall]	1.83 ± 0.12 kcal/mol	1.67 ± 0.066 kcal/mol	1.77 ± 0.16 kcal/mol
SAGGSAGGSAGGGKSITKVYTLPNGGKAVAVYNPETGKVEVYFFKPNGKLLEKKTFKAKSAGGSAGGSAGGS [r10_1044_TrMRF]	2.18 ± 0.068 kcal/mol	2.84 ± 0.07 kcal/mol	2.51 ± 0.11 kcal/mol
SAGGSAGGSAGGGLGYRTLTGRVEFELNITYLTEDGSPATLNLRFELELRFVVPVPPDYPSAGGSAGGSAGG [r7_926_TrMRF]	3.7 ± 0.14 kcal/mol	5.54 ± 0.098 kcal/mol	5.37 ± 0.14 kcal/mol
SAGGSAGGSAGGGLSSAPPPVVALSSSVSLVPSPSGGILTVTTTTDAGSGTTTTTTTALSAGGSAGGSAGGS [r10_1137_JUSTAS]	2.44 ± 0.068 kcal/mol	0.758 ± 0.025 kcal/mol	1.71 ± 0.042 kcal/mol
SAGGSAGGSAGGGMARAEKLPSSWTLVSVTPRDGSTVVTYKLPDGSTLTLDLRPDSYDGASAGGSAGGSAGG [r7_775_JUSTAS]	0.436 ± 0.058 kcal/mol	1.46 ± 0.15 kcal/mol	1.1 ± 0.075 kcal/mol
SAGGSAGGSAGGGMKVKIETTKLPNGIWRVKVYDENGNFIGEKEFTSEEELEEFKKKVASSAGGSAGGSAGG [r7_476_JUSTAS]	2.98 ± 0.25 kcal/mol	4.6 ± 0.14 kcal/mol	4.49 ± 0.19 kcal/mol
SAGGSAGGSAGGGMMKTVLISLEGVDPSGGPSRRVEIELTLSPEEIPKVIEELAKAGRVLSAGGSAGGSAGG [r7_618_JUSTAS]	0.533 ± 0.058 kcal/mol	-0.0881 ± 0.1 kcal/mol	0.232 ± 0.099 kcal/mol
SAGGSAGGSAGGGMMLAEFLKYDPRNPTATVVSVRTFSDPEEARAEAEKRGLLVRVIEPSAGGSAGGSAGGS [r10_657_JUSTAS]	-0.45 ± 0.28 kcal/mol	0.0192 ± 0.16 kcal/mol	-0.111 ± 0.1 kcal/mol
SAGGSAGGSAGGGMSLSYTVTTSTTVVPAPDGVTVLHPTTTTFPGGPTTTTTTVTVEPAGSAGGSAGGSAGG [r7_701_JUSTAS]	0.872 ± 0.021 kcal/mol	-0.855 ± 0.12 kcal/mol	0.409 ± 0.051 kcal/mol
SAGGSAGGSAGGGMVIVTREPENLTFTVYREDPSTGKLRRIGTFPVSPDELEKVLALLSSAGGSAGGSAGGS [r10_275_JUSTAS]	1.77 ± 0.053 kcal/mol	2.47 ± 0.074 kcal/mol	2.2 ± 0.079 kcal/mol
SAGGSAGGSAGGGNSLSSVRVVPVTLRTSEPLEQDGDPRPREFTETTVVRITETVPPGLSAGGSAGGSAGGS [r10_118_JUSTAS]	0.0729 ± 0.18 kcal/mol	0.57 ± 0.082 kcal/mol	0.356 ± 0.11 kcal/mol
SAGGSAGGSAGGGPAPGKGLVVKLEPEEFEFENFRLIVVKAVKDDKLIAEIAYLISPDESAGGSAGGSAGGS [r10_628_TrMRF]	1.05 ± 0.12 kcal/mol	0.823 ± 0.18 kcal/mol	0.904 ± 0.12 kcal/mol
